The target of experiment [1] is T1, Clostridium difficile toxin A (TcdA) (Clostridium difficile, UniProt P16154 1-2710).
T1 construct: also called TxA; rTcdA
The experiment in a line: binding kinetics, method not stated.

The target in experiment [2] is T2, Clostridium difficile toxin B (TcdB) (Clostridium difficile, UniProt P18177 2-2366).
T2 construct: also called TxB
The experiment in a line: binding kinetics, method not stated.

In experiment [3] the target is T2, Clostridium difficile toxin B (TcdB). The experiment can be described thus: ELISA on plates coated with 1 ug/ml TcdB (TxB), OD450.

T1 sequence (P16154 whole entry): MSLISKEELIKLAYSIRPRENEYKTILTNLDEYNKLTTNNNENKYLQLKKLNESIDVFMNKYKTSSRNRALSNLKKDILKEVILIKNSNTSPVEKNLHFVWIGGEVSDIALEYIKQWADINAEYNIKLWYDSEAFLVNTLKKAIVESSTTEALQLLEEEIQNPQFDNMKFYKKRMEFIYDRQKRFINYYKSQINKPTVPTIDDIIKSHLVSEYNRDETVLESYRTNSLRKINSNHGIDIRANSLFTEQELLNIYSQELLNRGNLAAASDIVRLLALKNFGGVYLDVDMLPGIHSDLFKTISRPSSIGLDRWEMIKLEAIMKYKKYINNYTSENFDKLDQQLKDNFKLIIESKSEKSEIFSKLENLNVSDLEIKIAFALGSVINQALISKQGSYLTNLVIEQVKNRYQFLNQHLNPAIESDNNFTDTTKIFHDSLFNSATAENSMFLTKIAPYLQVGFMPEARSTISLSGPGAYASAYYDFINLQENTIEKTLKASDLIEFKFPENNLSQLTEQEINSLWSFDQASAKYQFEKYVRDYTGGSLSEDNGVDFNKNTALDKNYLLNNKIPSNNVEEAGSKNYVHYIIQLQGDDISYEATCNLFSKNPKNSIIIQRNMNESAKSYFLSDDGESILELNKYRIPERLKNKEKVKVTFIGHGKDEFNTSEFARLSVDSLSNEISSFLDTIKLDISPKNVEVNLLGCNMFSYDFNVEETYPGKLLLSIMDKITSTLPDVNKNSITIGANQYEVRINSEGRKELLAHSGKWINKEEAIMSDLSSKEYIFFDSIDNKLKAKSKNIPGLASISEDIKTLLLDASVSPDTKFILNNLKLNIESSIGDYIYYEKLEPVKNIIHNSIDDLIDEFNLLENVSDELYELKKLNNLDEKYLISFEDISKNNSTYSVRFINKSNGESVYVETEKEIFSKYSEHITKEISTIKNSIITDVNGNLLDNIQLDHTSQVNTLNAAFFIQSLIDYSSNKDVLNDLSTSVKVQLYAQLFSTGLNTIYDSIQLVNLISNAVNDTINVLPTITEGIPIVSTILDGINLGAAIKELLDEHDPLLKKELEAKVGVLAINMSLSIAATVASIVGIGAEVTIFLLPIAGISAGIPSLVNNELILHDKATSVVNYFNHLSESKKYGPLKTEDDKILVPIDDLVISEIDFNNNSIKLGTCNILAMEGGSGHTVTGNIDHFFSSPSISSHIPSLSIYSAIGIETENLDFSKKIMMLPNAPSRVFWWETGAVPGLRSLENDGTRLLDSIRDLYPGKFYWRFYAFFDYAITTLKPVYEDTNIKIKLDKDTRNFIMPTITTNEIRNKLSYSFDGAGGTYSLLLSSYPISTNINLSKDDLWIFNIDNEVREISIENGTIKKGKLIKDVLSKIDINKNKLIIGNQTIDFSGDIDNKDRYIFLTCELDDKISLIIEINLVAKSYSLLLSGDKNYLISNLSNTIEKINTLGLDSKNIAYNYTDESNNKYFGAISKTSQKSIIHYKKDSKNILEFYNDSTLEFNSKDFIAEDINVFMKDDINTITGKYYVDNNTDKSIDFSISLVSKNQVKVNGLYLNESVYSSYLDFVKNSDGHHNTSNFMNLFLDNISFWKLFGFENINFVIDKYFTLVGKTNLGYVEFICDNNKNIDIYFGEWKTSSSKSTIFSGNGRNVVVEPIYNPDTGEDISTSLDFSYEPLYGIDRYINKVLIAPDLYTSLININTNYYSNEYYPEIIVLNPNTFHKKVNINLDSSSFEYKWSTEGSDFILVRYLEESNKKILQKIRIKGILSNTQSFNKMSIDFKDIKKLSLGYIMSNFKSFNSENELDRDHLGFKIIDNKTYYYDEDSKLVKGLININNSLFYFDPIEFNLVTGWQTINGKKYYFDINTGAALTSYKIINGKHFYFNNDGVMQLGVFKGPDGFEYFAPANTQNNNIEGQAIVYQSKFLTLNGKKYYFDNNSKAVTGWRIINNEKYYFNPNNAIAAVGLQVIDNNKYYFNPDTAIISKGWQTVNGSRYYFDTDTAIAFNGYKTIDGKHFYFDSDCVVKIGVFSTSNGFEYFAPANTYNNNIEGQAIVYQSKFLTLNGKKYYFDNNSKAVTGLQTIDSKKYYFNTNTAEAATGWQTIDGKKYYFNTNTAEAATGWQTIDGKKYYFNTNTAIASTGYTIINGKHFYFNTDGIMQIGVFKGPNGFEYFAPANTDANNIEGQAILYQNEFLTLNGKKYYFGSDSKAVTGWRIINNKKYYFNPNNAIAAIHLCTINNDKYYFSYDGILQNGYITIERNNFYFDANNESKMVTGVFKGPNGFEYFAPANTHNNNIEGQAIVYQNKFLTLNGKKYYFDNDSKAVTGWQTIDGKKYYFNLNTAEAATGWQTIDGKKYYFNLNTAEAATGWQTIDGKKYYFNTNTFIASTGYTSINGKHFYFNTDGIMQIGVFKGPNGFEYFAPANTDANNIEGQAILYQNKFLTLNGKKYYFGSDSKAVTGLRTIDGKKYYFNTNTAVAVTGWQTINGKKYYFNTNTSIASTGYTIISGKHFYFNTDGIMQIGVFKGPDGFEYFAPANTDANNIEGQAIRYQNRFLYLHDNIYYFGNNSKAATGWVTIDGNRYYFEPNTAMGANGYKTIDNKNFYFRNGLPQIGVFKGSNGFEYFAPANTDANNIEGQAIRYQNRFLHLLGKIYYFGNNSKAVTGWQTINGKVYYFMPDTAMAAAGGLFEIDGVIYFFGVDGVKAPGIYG
T2 sequence (P18177 2-2366 limits assumed): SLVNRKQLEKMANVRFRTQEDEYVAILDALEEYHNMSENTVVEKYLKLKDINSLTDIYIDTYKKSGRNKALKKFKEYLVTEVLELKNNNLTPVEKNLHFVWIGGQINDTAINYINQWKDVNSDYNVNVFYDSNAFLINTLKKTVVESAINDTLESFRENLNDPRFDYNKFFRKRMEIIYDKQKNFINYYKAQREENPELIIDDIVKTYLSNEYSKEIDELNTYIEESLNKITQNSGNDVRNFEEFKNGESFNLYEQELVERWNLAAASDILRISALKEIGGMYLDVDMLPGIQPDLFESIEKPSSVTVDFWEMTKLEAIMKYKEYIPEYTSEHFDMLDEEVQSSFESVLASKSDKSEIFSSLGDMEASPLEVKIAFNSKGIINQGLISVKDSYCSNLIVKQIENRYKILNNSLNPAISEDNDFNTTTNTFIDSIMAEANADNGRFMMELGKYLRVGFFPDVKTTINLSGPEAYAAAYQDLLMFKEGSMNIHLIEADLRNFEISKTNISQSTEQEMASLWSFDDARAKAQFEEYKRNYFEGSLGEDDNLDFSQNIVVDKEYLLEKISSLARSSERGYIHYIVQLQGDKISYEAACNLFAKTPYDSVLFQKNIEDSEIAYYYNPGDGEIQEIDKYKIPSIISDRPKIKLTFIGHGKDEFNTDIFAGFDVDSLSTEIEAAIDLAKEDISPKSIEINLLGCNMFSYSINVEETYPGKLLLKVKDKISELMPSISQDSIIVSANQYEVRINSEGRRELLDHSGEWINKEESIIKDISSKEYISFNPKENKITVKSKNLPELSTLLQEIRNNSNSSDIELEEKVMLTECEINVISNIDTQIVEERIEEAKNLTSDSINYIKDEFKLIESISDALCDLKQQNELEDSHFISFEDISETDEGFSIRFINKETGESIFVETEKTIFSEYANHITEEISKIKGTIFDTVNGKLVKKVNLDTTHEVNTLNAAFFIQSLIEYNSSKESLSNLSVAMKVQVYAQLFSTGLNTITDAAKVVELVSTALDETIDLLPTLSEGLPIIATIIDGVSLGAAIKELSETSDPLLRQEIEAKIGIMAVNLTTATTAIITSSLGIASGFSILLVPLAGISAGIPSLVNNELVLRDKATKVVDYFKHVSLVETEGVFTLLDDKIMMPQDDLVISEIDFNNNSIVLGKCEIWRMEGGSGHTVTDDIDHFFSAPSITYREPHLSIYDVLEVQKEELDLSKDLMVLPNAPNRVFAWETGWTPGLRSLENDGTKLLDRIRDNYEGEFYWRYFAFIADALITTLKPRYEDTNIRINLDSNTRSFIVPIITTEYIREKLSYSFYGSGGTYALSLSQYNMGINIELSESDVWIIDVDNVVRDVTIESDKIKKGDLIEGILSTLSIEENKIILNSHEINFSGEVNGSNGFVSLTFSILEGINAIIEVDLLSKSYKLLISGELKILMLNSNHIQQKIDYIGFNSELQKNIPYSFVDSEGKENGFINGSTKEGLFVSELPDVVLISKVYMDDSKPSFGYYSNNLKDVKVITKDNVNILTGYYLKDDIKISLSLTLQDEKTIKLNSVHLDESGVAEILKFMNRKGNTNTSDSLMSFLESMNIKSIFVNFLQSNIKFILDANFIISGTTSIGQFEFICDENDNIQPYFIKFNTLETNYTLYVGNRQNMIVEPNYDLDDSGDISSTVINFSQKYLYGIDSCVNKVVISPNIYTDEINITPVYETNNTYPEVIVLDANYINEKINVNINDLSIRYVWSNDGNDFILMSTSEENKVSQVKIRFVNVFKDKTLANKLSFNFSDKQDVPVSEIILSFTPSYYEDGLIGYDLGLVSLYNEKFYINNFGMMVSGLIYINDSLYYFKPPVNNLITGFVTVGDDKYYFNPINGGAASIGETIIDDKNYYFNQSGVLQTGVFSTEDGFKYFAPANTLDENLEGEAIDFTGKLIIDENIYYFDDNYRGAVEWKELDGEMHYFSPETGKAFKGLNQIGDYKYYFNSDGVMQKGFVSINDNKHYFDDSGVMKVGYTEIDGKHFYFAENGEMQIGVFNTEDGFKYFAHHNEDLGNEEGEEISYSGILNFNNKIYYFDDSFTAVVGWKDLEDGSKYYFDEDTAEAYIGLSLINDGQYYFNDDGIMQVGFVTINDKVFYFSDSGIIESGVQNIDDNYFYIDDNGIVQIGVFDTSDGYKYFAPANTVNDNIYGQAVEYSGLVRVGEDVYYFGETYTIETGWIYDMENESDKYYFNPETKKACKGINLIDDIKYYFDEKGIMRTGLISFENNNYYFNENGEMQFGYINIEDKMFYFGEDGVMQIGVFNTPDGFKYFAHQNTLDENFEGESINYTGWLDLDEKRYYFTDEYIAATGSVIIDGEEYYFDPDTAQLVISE

B1: VHH peptide monomer AH3 (VHH)
VHH: QVQLVETGGLVQPGGSLRLSCAASGFTLDYSSIGWFRQAPGKEREGVSCISSSGDSTKYADSVKGRFTTSRDNAKNTVYLQMNSLKPDDTAVYYCAAFRATMCGVFPLSPYGKDDWGKGTLVTVSS
notes: also called VHH AH3
In experiment [1], B1 registered an equilibrium dissociation constant (Kd) of 32 nM, a koff of 0.00071 s⁻¹ and a kon of 22000 M⁻¹ s⁻¹.

B2: VHH peptide monomer 5D (VHH)
VHH: QVQLVESGGGLVQPGGSLRLSCEASGFTLDYYGIGWFRQPPGKEREAVSYISASARTILYADSVKGRFTISRDNAKNAVYLQMNSLKREDTAVYYCARRRFSASSVNRWLADDYDVWGRGTQVAVSS
In experiment [2], B2 yielded a dissociation constant Kd of 0.65 nM, a koff of 0.000994 s⁻¹ and an association rate constant (kon) of 1.52e+06 M⁻¹ s⁻¹.

B3: VHH peptide monomer E3 (VHH)
VHH: QVQLVESGGGLVQTGGSLRLSCASSGSIAGFETVTWSRQAPGKSLQWVASMTKTNNEIYSDSVKGRFIISRDNAKNTVYLQMNSLKPEDTGVYFCKGPELRGQGIQVTVSS
notes: also called VHH E3
Take B3: in experiment [3], the “EC50 (read off the curve)” value is approximately 0.02 µg/mL. In addition, in experiment [2], the dissociation constant Kd worked out at 0.03 nM, the off-rate constant (koff) was determined as 9.4e-05 s⁻¹ and the kon came to 2.95e+06 M⁻¹ s⁻¹.

B4: ABAB binding agent (AH3/5D/AA6/E3, tetra-specific tetrameric VHH) (designed binder)
chain: QVQLVETGGGLVQPGGSLRLSCAASGFTLDYSSIGWFRQAPGKEREGVSCISSSGDSTKYADSVKGRFTTSRDNAKNTVYLQMNSLKPDDTAVYYCAAFRATMCGVFPLSPYGKDDWGKGTLVTVSSGGGGSGGGGSGGGGSQVQLVESGGGLVQPGGSLRLSCEASGFTLDYYGIGWFRQPPGKEREAVSYISASARTILYADSVKGRFTISRDNAKNAVYLQMNSLKREDTAVYYCARRRFSASSVNRWLADDYDVWGRGTQVAVSSGGGSGGGSGGGSGGGSQLQLVETGGGLVQPGGSLRLSCAASGFTFSDYVMTWVRQAPGKGPEWIATINTDGSTMRDDSTKGRFTISRDNAKNTLYLQMTSLKPEDTALYYCARGRVISASAIRGAVRGPGTQVTVSSGGGGSGGGGSGGGGSQVQLVESGGGLVQTGGSLRLSCASSGSIAGFETVTWSRQAPGKSLQWVASMTKTNNEIYSDSVKGRFIISRDNAKNTVYLQMNSLKPEDTGVYFCKGPELRGQGIQVTVSS
notes: also called r-ABAB; recombinant ABAB
Consider B4, for which, in experiment [2], binding was characterised by a dissociation constant (Kd) of 0.002 nM, the koff was 3.57e-06 s⁻¹ and the kon was 1.79e+06 M⁻¹ s⁻¹.

The values are drawn from patent US20180319872A1 (UNIVERSITY OF MARYLAND BALTIMORE, published 2018).
